This experiment has as its target purified human recombinant HGF (human, UniProt P14210 32-728). Description: far-Western, overlay or dot blot.

purified human recombinant HGF, sequence (P14210 32-728): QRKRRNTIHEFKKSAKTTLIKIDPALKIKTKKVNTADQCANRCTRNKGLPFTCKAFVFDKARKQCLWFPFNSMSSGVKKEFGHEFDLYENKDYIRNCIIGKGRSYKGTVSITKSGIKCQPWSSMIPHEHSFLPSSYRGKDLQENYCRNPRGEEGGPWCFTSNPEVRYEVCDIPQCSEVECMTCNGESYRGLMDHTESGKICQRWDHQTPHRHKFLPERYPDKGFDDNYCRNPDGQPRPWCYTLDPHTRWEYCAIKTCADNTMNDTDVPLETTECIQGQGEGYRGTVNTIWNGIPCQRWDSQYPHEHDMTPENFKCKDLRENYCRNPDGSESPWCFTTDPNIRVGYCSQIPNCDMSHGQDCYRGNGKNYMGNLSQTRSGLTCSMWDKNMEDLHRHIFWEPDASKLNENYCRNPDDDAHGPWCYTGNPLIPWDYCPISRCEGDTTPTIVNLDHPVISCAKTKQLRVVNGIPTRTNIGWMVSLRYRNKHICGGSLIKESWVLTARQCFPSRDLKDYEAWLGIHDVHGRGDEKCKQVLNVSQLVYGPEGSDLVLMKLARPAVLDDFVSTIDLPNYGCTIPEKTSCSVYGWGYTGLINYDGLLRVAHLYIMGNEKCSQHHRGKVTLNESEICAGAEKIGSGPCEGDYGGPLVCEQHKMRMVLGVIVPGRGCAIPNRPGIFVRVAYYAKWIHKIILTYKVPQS

B1: NEPHRIN-P1 peptide (peptide)
peptide: PDITILLSGQTISDISANVNEGSQQKL
With B1, the binding result is listed as “binds”.

B2: NEPH1-P1 peptide (peptide)
peptide: QEGERVVFTCQATANPEIL
For B2, the binding result is recorded as “binds”.
